Test results as given in US20240216513A1, “FATTY ACID-BIFUNCTIONAL DEGRADER CONJUGATES AND THEIR METHODS OF USE” (Novartis AG, priority 2021, published 2024).

Key:
[1] = BTK FAC plasma stability assay, rat plasma; format: in vitro ADME; settings: for Plasma stability (h) rat: incubation to 24 h
Procedure: (§1) Plasma stability was conducted in Dulbecco's PBS buffer, mouse plasma, rat plasma or human plasma frozen with K3-EDTA from BiolVT). Thawed plasma was centrifuged prior to warming for 5 minutes at 37° C. Working solutions were prepared from 10 mM DMSO solution to 500 µM in acetonitrile:water (1:1); 2 µL of working solution was added to 198 µL blank plasma or PBS and mixed manually. 4×45 µL of spiked matrix was aliquoted into glass incubation plates (96-well DW glass microplate) and sealed with blue silicon/PTFE seal; then incubated on a Thermo shaker (38° C. 300 RPM). Samples were prepared at 0, 2, 6 and 24 h timepoints, by protein precipitation with chilled acetonitrile containing internal standard Glyburide (0.2 µM). Precipitated samples were shaken for 10 minutes and stored at 4° C. until completion of the study. Following precipitation of the terminal sample, samples were frozen at −80° C. for 1 hour. Samples were then thawed prior to centrifugation (20 minutes, 4500 RPM at 4° C.). 50 µL of supernatant of each sample was transferred to 384 well analysis plate containing 30 µL of water. Semi quantitative analysis (analyte: internal standard peak area ratio) was performed by LC-MS/MS using a Sciex QTrap 5500.

[2] = BTK FAC plasma stability assay, mouse plasma; format: in vitro ADME; settings: for Plasma stability (h) mouse: incubation to 24 h
Procedure: as §1

[3] = BTK FAC plasma stability assay, cyno plasma; format: in vitro ADME, cynomolgus monkey
[4] = BTK FAC plasma stability assay, PBS buffer arm; format: physicochemical; settings: for Plasma stability (h) PBS: incubation to 24 h
Procedure: as §1

[5] = BTK FAC plasma stability assay, dog plasma; format: in vitro ADME

**Q.** Which results are given for `CCCCCCCCCCCN(C(=O)CCCCCCCCCC(=O)O)[C@@H](CCC(=O)NCCOCCOCCOCCOCCOCCOCCOCCOCCOCCOCCOCCOCCC(=O)NCCCC(=O)OC(C)(C)c1ccc(C(=O)Nc2cc(F)cc(-c3ncnc4[nH]c(-c5ccc(CCN6CCC7(CC6)CCN(C(=O)c6ccc(OC)c(N8CCC(=O)NC8=O)c6)CC7)cc5)cc34)c2C)c(F)c1)C(=O)O` [Example A27, (S)-52-Carboxy-2-(4-((3-(6-(4-(2-(9-(3-(2,4-dioxotetrahydropyrimidin-1(2H)-yl)-4-methoxybenzoyl)-3,9-diazaspiro[5.5]undecan-3-yl)ethyl)phenyl)-7H-pyrrolo[2,3-d]pyrimidin-4-yl)-5-fluoro-2-methylphenyl)carbamoyl)-3-fluorophenyl)-2-methyl-4,9,49,54-tetraoxo-53-undecyl-3,12,15,18,21,24,27,30,33,36,39,42,45-tridecaoxa-8,48,53-triazatetrahexacontan-64-oic acid]?
**A.** % Release of degrader after 24 h rat [1]: 2%; % Release of degrader after 24 h mouse [2]: 13.7%; Plasma stability (h) mouse [2]: 28.6 h; Plasma stability (h) cyno [3]: 26.6 h; % Release of degrader after 24 h cyno [3]: 0.4%; % Release of degrader after 24 h PBS [4]: 0.3%; Plasma stability (h) PBS [4]: >48 h; Plasma stability (h) dog [5]: >48 h; % Release of degrader after 24 h dog [5]: 0.5%

**Q.** For `COc1ccc(C(=O)N2CCC3(CCN(CCc4ccc(-c5cc6c(-c7cc(F)cc(NC(=O)c8ccc(C(C)(C)OC(=O)CNC(=O)CCOCCOCCOCCOCCOCCOCCOCCOCCOCCOCCOCCOCCNC(C)=O)cc8F)c7C)ncnc6[nH]5)cc4)CC3)CC2)cc1N1CCC(=O)NC1=O` [Example A33, 2-(4-((3-(6-(4-(2-(9-(3-(2,4-Dioxotetrahydropyrimidin-1(2H)-yl)-4-methoxybenzoyl)-3,9-diazaspiro[5.5]undecan-3-yl)ethyl)phenyl)-7H-pyrrolo[2,3-d]pyrimidin-4-yl)-5-fluoro-2-methylphenyl)carbamoyl)-3-fluorophenyl)propan-2-yl (2-oxo-6,9,12,15,18,21,24,27,30,33,36,39-dodecaoxa-3-azadotetracontan-42-oyl)glycinate], which “% Release of degrader after 24 h rat” value [1] is on record?
**A.** 16.7%

**Q.** What about the “Plasma stability (h) rat” value [1] of the same compound?
**A.** 2.3 h

**Q.** What about the “% Release of degrader after 24 h mouse” value [2] of the same compound?
**A.** 27.7%

**Q.** And the “Plasma stability (h) mouse” value [2]?
**A.** 5.1 h

**Q.** And the “Plasma stability (h) cyno” value [3]?
**A.** 45.7 h

**Q.** And the “% Release of degrader after 24 h cyno” value [3]?
**A.** 8.1%

**Q.** And the “% Release of degrader after 24 h PBS” value [4]?
**A.** 4.8%

**Q.** And the “Plasma stability (h) PBS” value [4]?
**A.** >48 h

**Q.** And the “Plasma stability (h) dog” value [5]?
**A.** 32 h

**Q.** What about the “% Release of degrader after 24 h dog” value [5] of the same compound?
**A.** 10.4%

**Q.** For `CCCCCCCCCCCN(C(=O)CCCCCCCCCC(=O)O)C(CCC(=O)NCCOCCOCCOCCOCCOCCOCCOCCOCCOCCOCCOCCOCCOCCOCCOCCOCCC(=O)NCC(=O)OC(C)(C)c1ccc(C(=O)Nc2cc(F)cc(-c3ncnc4[nH]c(-c5ccc(CCN6CCC7(CC6)CCN(C(=O)c6ccc(OC)c(N8CCC(=O)NC8=O)c6)CC7)cc5)cc34)c2C)c(F)c1)C(=O)O` (stereo not drawn) [Example A9, 62-Carboxy-2-(4-((3-(6-(4-(2-(9-(3-(2,4-dioxotetrahydropyrimidin-(2H)-yl)-4-methoxybenzoyl)-3,9-diazaspiro[5.5]undecan-3-yl)ethyl)phenyl)-7H-pyrrolo[2,3-d]pyrimidin-4-yl)-5-fluoro-2-methylphenyl)carbamoyl)-3-fluorophenyl)-2-methyl-4,7,59,64-tetraoxo-63-undecyl-3,10,13,16,19,22,25,28,31,34,37,40,43,46,49,52,55-heptadecaoxa-6,58,63-triazatetraheptacontan-74-oic acid], which “% Release of degrader after 24 h rat” value [1] is on record?
**A.** 22.4%

**Q.** What about the “Plasma stability (h) rat” value [1] of the same compound?
**A.** 6.8 h

**Q.** What about the “% Release of degrader after 24 h mouse” value [2] of the same compound?
**A.** 15.6%

**Q.** And the “Plasma stability (h) mouse” value [2]?
**A.** 4.6 h

**Q.** What about the “Plasma stability (h) cyno” value [3] of the same compound?
**A.** 30.8 h

**Q.** What about the “% Release of degrader after 24 h cyno” value [3] of the same compound?
**A.** 3.7%

**Q.** And the “% Release of degrader after 24 h PBS” value [4]?
**A.** 1.2%

**Q.** What about the “Plasma stability (h) PBS” value [4] of the same compound?
**A.** >48 h

**Q.** And the “Plasma stability (h) dog” value [5]?
**A.** >48 h

**Q.** And the “% Release of degrader after 24 h dog” value [5]?
**A.** 5.7%

**Q.** For `COCCOCCOCCOCCOCCOCCOCCOCCOCCOCCOCCOCCC(=O)NCC(=O)OC(C)(C)c1ccc(C(=O)Nc2cc(F)cc(-c3ncnc4[nH]c(-c5ccc(CCN6CCC7(CC6)CCN(C(=O)c6ccc(OC)c(N8CCC(=O)NC8=O)c6)CC7)cc5)cc34)c2C)c(F)c1` [Example A34, 2-(4-((3-(6-(4-(2-(9-(3-(2,4-Dioxotetrahydropyrimidin-1(2H)-yl)-4-methoxybenzoyl)-3,9-diazaspiro[5.5]undecan-3-yl)ethyl)phenyl)-7H-pyrrolo[2,3-d]pyrimidin-4-yl)-5-fluoro-2-methylphenyl)carbamoyl)-3-fluorophenyl)propan-2-yl (2,5,8,11,14,17,20,23,26,29,32,35-dodecaoxaoctatriacontan-38-oyl)glycinate], which “% Release of degrader after 24 h rat” value [1] is on record?
**A.** 42.2%

**Q.** What about the “Plasma stability (h) rat” value [1] of the same compound?
**A.** 5.3 h

**Q.** And the “% Release of degrader after 24 h mouse” value [2]?
**A.** 26.2%

**Q.** And the “Plasma stability (h) mouse” value [2]?
**A.** 6.8 h

**Q.** And the “Plasma stability (h) cyno” value [3]?
**A.** 30.6 h

**Q.** What about the “% Release of degrader after 24 h cyno” value [3] of the same compound?
**A.** 13.9%

**Q.** What about the “% Release of degrader after 24 h PBS” value [4] of the same compound?
**A.** 5.2%

**Q.** What about the “Plasma stability (h) PBS” value [4] of the same compound?
**A.** >48 h

**Q.** What about the “Plasma stability (h) dog” value [5] of the same compound?
**A.** >48 h

**Q.** What about the “% Release of degrader after 24 h dog” value [5] of the same compound?
**A.** 5.3%

**Q.** With `CCCCCCCCCCCN(C(=O)CCCCCCCCCC(=O)O)C(CCC(=O)NCCOCCOCCOCCOCCOCCOCCOCCOCCOCCOCCOCCOCCC(=O)NCc1ccc(C(=O)OC(C)(C)c2ccc(C(=O)Nc3cc(F)cc(-c4ncnc5[nH]c(-c6ccc(CCN7CCC8(CC7)CCN(C(=O)c7ccc(OC)c(N9CCC(=O)NC9=O)c7)CC8)cc6)cc45)c3C)c(F)c2)cc1)C(=O)O` (stereo not drawn) [Example A14, 46-Carboxy-1-(4-(((2-(4-((3-(6-(4-(2-(9-(3-(2,4-dioxotetrahydropyrimidin-1(2H)-yl)-4-methoxybenzoyl)-3,9-diazaspiro[5.5]undecan-3-yl)ethyl)phenyl)-7H-pyrrolo[2,3-d]pyrimidin-4-yl)-5-fluoro-2-methylphenyl)carbamoyl)-3-fluorophenyl)propan-2-yl)oxy)carbonyl)phenyl)-3,43,48-trioxo-47-undecyl-6,9,12,15,18,21,24,27,30,33,36,39-dodecaoxa-2,42,47-triazaoctapentacontan-58-oic acid] as the compound, how does the “% Release of degrader after 24 h rat” value [1] read?
**A.** 0.3%

**Q.** What about the “Plasma stability (h) rat” value [1] of the same compound?
**A.** >48 h

**Q.** And the “% Release of degrader after 24 h mouse” value [2]?
**A.** 9.5%

**Q.** And the “Plasma stability (h) mouse” value [2]?
**A.** >48 h

**Q.** And the “Plasma stability (h) cyno” value [3]?
**A.** >48 h

**Q.** What about the “% Release of degrader after 24 h cyno” value [3] of the same compound?
**A.** 0.2%

**Q.** And the “% Release of degrader after 24 h PBS” value [4]?
**A.** 0.2%

**Q.** What about the “Plasma stability (h) PBS” value [4] of the same compound?
**A.** >48 h

**Q.** What about the “Plasma stability (h) dog” value [5] of the same compound?
**A.** >48 h

**Q.** And the “% Release of degrader after 24 h dog” value [5]?
**A.** 0.1%

**Q.** Which “% Release of degrader after 24 h rat” value [1] does the source give for `CCCCCCCCCCCN(C(=O)CCCCCCCCCC(=O)O)C(CCC(=O)NCCOCCOCCOCCOCCOCCOCCOCCOCCOCCOCCOCCOCCC(=O)NCc1ccc(C(=O)OC(C)(C)c2ccc(C(=O)Nc3cc(F)cc(-c4ncnc5[nH]c(-c6ccc(CCN7CCC8(CC7)CCN(C(=O)c7ccc(OC)c(N9CCC(=O)NC9=O)c7)CC8)cc6)cc45)c3C)c(F)c2)cn1)C(=O)O` (stereo not drawn) [Example A25, 46-Carboxy-1-(5-(((2-(4-((3-(6-(4-(2-(9-(3-(2,4-dioxotetrahydropyrimidin-1(2H)-yl)-4-methoxybenzoyl)-3,9-diazaspiro[5.5]undecan-3-yl)ethyl)phenyl)-7H-pyrrolo[2,3-d]pyrimidin-4-yl)-5-fluoro-2-methylphenyl)carbamoyl)-3-fluorophenyl)propan-2-yl)oxy)carbonyl)pyridin-2-yl)-3,43,48-trioxo-47-undecyl-6,9,12,15,18,21,24,27,30,33,36,39-dodecaoxa-2,42,47-triazaoctapentacontan-58-oic acid] here?
**A.** 1.5%

**Q.** What about the “Plasma stability (h) rat” value [1] of the same compound?
**A.** 35.7 h

**Q.** And the “% Release of degrader after 24 h mouse” value [2]?
**A.** 20.9%

**Q.** What about the “Plasma stability (h) mouse” value [2] of the same compound?
**A.** 17.8 h

**Q.** What about the “Plasma stability (h) cyno” value [3] of the same compound?
**A.** >48 h

**Q.** And the “% Release of degrader after 24 h cyno” value [3]?
**A.** 1.1%

**Q.** What about the “% Release of degrader after 24 h PBS” value [4] of the same compound?
**A.** 2.2%

**Q.** What about the “Plasma stability (h) PBS” value [4] of the same compound?
**A.** >48 h

**Q.** What about the “Plasma stability (h) dog” value [5] of the same compound?
**A.** >48 h

**Q.** And the “% Release of degrader after 24 h dog” value [5]?
**A.** 1.1%

**Q.** For `CCCCCCCCCCCN(C(=O)CCCCCCCCCC(=O)O)C(CCC(=O)NCCOCCOCCOCCOCCOCCOCCOCCOCCOCCOCCOCCOCCC(=O)NCCC(=O)OC(C)(C)c1ccc(C(=O)Nc2cc(F)cc(-c3ncnc4[nH]c(-c5ccc(CCN6CCC7(CC6)CCN(C(=O)c6ccc(OC)c(N8CCC(=O)NC8=O)c6)CC7)cc5)cc34)c2C)c(F)c1)C(=O)O` (stereo not drawn) [Example A12, 51-Carboxy-2-(4-((3-(6-(4-(2-(9-(3-(2,4-dioxotetrahydropyrimidin-1(2H)-yl)-4-methoxybenzoyl)-3,9-diazaspiro[5.5]undecan-3-yl)ethyl)phenyl)-7H-pyrrolo[2,3-d]pyrimidin-4-yl)-5-fluoro-2-methylphenyl)carbamoyl)-3-fluorophenyl)-2-methyl-4,8,48,53-tetraoxo-52-undecyl-3,11,14,17,20,23,26,29,32,35,38,41,44-tridecaoxa-7,47,52-triazatrihexacontan-63-oic acid], which “% Release of degrader after 24 h rat” value [1] is on record?
**A.** 2%

**Q.** And the “Plasma stability (h) rat” value [1]?
**A.** >49 h

**Q.** What about the “% Release of degrader after 24 h mouse” value [2] of the same compound?
**A.** 14.2%

**Q.** And the “Plasma stability (h) mouse” value [2]?
**A.** 27.3 h

**Q.** What about the “Plasma stability (h) cyno” value [3] of the same compound?
**A.** 44.9 h

**Q.** And the “% Release of degrader after 24 h cyno” value [3]?
**A.** 0.5%

**Q.** And the “% Release of degrader after 24 h PBS” value [4]?
**A.** 0.3%

**Q.** What about the “Plasma stability (h) PBS” value [4] of the same compound?
**A.** >48 h

**Q.** What about the “Plasma stability (h) dog” value [5] of the same compound?
**A.** >48 h

**Q.** And the “% Release of degrader after 24 h dog” value [5]?
**A.** 1.2%
